How the values were obtained:
14-3-3ζ [1] = target: 14-3-3ζ (UniProt P63104); assay: His-tag co-purification after E. coli co-expression; settings: reference: HSPB6 wild type (Ser16); sites S16
FLAG-CRBN (human) = FLAG-CRBN (human) (UniProt Q96SW2); assay: co-IP; 20 μM purified Myc-14-3-3ζ added to lysate of HEK293T cells expressing FLAG-CRBN (Calyculin A, no phosphatase), 1 h; ANTI-FLAG M2 affinity gel; 50 mM Tris pH 7.5, 150 mM NaCl; Western blot with α-FLAG and α-myc
14-3-3ζ [2] = target: 14-3-3ζ (UniProt P63104); assay: SEC-MALS of homodimer, 50 µM; settings: reference: 14-3-3ζ wild type; sites S58
HSPB6 (Homo sapiens) = HSPB6 (Homo sapiens) (UniProt O14558); settings: cited from earlier work
HSPB6-nhpSer16 [3] = target: HSPB6-nhpSer16 (UniProt O14558); assay: AUC; sedimentation equilibrium; 14.3, 7.2 and 3.6 μM; 8,000, 10,000 and 15,000 rpm; 5 °C; 50 mM Tris pH 7.4, 150 mM NaCl, 1 mM TCEP; global fit to A + B ↔ AB with fixed masses of a HSPB6 dimer and a 14-3-3ζ dimer
HSPB6-pSer16 [4] = target: HSPB6-pSer16 (UniProt O14558); assay: as above
HSPB6-nhpSer16 [5] = target: HSPB6-nhpSer16 (UniProt O14558); assay: SEC-MALS; co-purified 14-3-3ζ/HSPB6 complexes, or purified HSPB6 mixed with 14-3-3ζ; Superdex 200 10/300 GL; 50 mM Tris pH 7.4, 150 mM NaCl, 0.5 mM TCEP; room temperature; samples at 50 μM
HSPB6-pSer16 [6] = target: HSPB6-pSer16 (UniProt O14558); assay: as above
14-3-3ζ WT (human) = 14-3-3ζ WT (human) (UniProt P63104); assay: SEC-MALS; 14-3-3ζ variants alone, injected at 50 μM initial concentration; Superdex 200 10/300 GL; 50 mM Tris pH 7.4, 150 mM NaCl, 0.5 mM TCEP; room temperature; dimer to monomers

Chain of 14-3-3ζ WT (P63104 1-230): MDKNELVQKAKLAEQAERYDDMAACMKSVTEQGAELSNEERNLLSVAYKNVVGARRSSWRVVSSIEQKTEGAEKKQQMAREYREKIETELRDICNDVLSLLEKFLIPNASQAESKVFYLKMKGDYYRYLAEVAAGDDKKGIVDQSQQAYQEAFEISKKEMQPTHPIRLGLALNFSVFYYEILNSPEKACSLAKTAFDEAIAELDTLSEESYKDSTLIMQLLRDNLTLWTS
Chain of HSPB6-pSer16 (O14558 whole entry): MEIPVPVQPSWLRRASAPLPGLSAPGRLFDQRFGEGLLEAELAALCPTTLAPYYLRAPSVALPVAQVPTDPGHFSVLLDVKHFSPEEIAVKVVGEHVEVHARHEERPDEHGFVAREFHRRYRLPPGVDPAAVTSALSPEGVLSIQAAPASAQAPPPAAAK
Chain of myc-14-3-3ζ nhpSer58 (P63104 whole entry): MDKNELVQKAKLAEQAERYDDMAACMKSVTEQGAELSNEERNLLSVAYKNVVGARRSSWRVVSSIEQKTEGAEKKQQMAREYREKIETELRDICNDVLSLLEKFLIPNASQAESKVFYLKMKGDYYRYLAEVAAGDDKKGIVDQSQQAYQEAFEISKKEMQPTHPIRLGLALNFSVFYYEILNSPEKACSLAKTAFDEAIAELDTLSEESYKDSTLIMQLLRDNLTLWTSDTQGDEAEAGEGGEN
Chain of 14-3-3ζ (UniProt P63104) (P63104 whole entry): as above
Chain of 14-3-3ζ (from UniProt P63104) (P63104 whole entry): as above
Chain of 14-3-3ζ (from UniProt P63104) 14-3-3ζ pSer58 (genetic code expansion) (P63104 whole entry, change not shown): as the sequence (P63104 whole entry) above
Chain of FLAG-CRBN (human) (Q96SW2 whole entry): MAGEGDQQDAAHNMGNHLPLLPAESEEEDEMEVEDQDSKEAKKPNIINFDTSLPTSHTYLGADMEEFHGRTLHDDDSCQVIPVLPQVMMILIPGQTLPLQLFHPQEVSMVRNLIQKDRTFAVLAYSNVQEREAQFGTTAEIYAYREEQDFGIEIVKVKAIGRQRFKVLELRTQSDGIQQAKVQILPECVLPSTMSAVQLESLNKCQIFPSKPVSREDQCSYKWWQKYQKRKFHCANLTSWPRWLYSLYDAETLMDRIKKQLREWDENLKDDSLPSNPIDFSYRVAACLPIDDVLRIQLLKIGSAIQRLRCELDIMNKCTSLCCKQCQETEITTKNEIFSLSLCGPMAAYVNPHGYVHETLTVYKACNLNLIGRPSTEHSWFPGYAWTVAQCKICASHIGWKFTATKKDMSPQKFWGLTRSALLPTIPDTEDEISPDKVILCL
Chain of HSPB6 (Homo sapiens) (O14558 whole entry): as the sequence (O14558 whole entry) above

In the case of “HSPB6 (small heat shock protein B6) (from UniProt O14558) HSPB6 pSer16 (genetic code expansion)”, the “binding against the reference” value (14-3-3ζ [1]) is reported as “gained”.

Work on “myc-14-3-3ζ nhpSer58 (from UniProt P63104 1-245) (natural protein)” yielded a fold co-immunoprecipitated relative to myc-14-3-3ζ WT or pSer58 (FLAG-CRBN (human)) of 10 fold.

In the case of “14-3-3ζ (from UniProt P63104) 14-3-3ζ pSer58 (genetic code expansion)”, the “binding against the reference” value (14-3-3ζ [2]) is reported as “lost”.

In the case of 14-3-3ζ (from UniProt P63104), the Kd (HSPB6 (Homo sapiens)) is listed as 560 nM.

With “14-3-3ζ WT (from UniProt P63104 1-230) (natural protein)” the Kd (HSPB6-nhpSer16 [3]) was 120 nM, the Kd (HSPB6-pSer16 [4]) was 92 nM and the stoichiometry N (14-3-3ζ chains per HSPB6 chain (2:2)) (HSPB6-nhpSer16 [5]) was 1. For the same substance, the stoichiometry N (14-3-3ζ chains per HSPB6 chain (2:2)) (HSPB6-pSer16 [6]) was 1 and the stoichiometry N (14-3-3ζ WT (human)) was 2.
